Test results: the supplement of paper PMC12855868

B1: library; numbered along this chain (parent)
chain: MAAAGGARLLRAASAVLGGPAGRWLHHAGSRAGSSGLLRNRGPGGSAEASRSLSVSARARSSSEDKITVHFINRDGETLTTKGKVGDSLLDVVVENNLDIDGFGACEGTLACSTCHLIFEDHIYEKLDAITDEENDMLDLAYGLTDRSRLGCQICLTKSMDNMTVRVPETVADARQSIDVGKTS

Variants of: B1
Assay: scaled log2 fold change in cell abundance, elesclomol vs control (0 = silent mean, 1 = nonsense mean) (scaled log2 ratio); higher = higher viability under elesclomol (loss of FDX1 cuproptosis function)
Conditions: glucose 10 mM
Procedure: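 Deep mutational scan of full-length human FDX1: a pooled saturation-mutagenesis ORF library (every residue 2-184 mutated to all 19 amino acids plus stop, and silent codons where available) was expressed by lentivirus in FDX1-knockout ABC1 (14 days) or HEK293T (11 days) cells grown with elesclomol (ES) or DMSO control. Variant abundance came from ORF sequencing. The log2 fold change (ES vs control, mean of duplicates) was centred on the silent-variant mean (0) and scaled to the nonsense-variant mean (1). Higher values mean greater viability under ES, i.e. loss of FDX1 function in cuproptosis.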

[1] = with ABC1 FDX1 KO, elesclomol 5 nM, 14 days
[2] = with HEK293T FDX1 KO, elesclomol 40 nM, 11 days
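Also: variant abundance is its share of total variant reads in each endpoint sample, from next-generation sequencing of the integrated ORF PCR-amplified out of genomic DNA.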

| Variant | scaled log2 fold change [1] | scaled log2 fold change [2] |
| --- | --- | --- |
| E77D | -0.61 | -0.9 |
| E77F | -0.642 | 0.94 |
| E77G | 0.311 | -0.306 |
| E77H | -0.0496 | -0.0091 |
| E77I | -0.922 | -0.714 |
| E77K | 0.242 | -0.341 |
| E77L | 0.262 | 0.144 |
| E77M | -0.575 | -0.139 |
| E77N | 0.0389 | -0.504 |
| E77P | 0.108 |  |
| E77Q | -0.0695 | 0.00586 |
| E77R | -0.178 | -0.307 |
| E77S | -0.974 | 0.00555 |
| E77T | -1.24 | -0.154 |
| E77V | -0.145 | -0.226 |
| E77W | 0.139 | 0.815 |
| E77Y | 0.514 | -0.542 |
| T78C | -0.0788 |  |
| T78D | 0.00307 | -0.427 |
| T78E | 0.171 | 2.14 |

| Variant | scaled log2 fold change [1] | scaled log2 fold change [2] |
| --- | --- | --- |
| T78G | -0.0398 | 0.179 |
| T78H | -0.378 | 1.01 |
| T78I | -0.229 |  |
| T78K | 0.447 | -1.09 |
| T78L | -0.709 | 0.584 |
| T78M | -0.54 | -0.0932 |
| T78N | -0.0446 | -0.273 |
| T78P | -0.0243 | -0.366 |
| T78Q | 0.0403 | -0.00407 |
| T78R | -0.905 | -0.932 |
| T78S | 0.0645 | 0.487 |
| T78V | 0.108 | -0.249 |
| T78W | -0.127 | -0.938 |
| T78Y | -0.386 | -0.209 |
| L79A | 0.253 | 0.232 |
| L79C | 0.0853 | -0.242 |
| L79D | 0.287 | -0.0667 |
| L79E | 0.0989 | -0.00345 |
| L79F | 0.0893 | -0.166 |
| L79G | 0.145 | 1.18 |

| Variant | scaled log2 fold change [1] | scaled log2 fold change [2] |
| --- | --- | --- |
| L79H | -0.594 | 0.119 |
| L79I | -0.0225 | -0.761 |
| L79K | 0.0188 | 0.977 |
| L79M | -0.15 | -0.649 |
| L79N | 0.26 | 0.247 |
| L79P | 0.634 | 0.299 |
| L79Q | -0.224 | -0.128 |
| L79R | -0.538 | -0.117 |
| L79S | 0.0141 |  |
| L79T | -0.0538 |  |
| L79V | 0.047 | 1.39 |
| L79W | -0.0916 | 0.138 |
| L79Y | -0.343 | 0.278 |
| T80A | -0.231 |  |
| T80C | 0.0285 | -0.291 |
| T80D | -0.0431 | -0.13 |
| T80E | 0.301 | -0.0351 |
| T80F | 0.473 | -0.712 |
| T80G | 0.0761 | -0.279 |
